Test results reported in the NTF2 design screens of Basanta et al. (2020).

Assay: protease stability score; higher = more stable; yeast display proteolysis, trypsin and chymotrypsin;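 note: relative to predicted unfolded state with 0 unfolded-like and 1 meaning tenfold more protease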

Row | Sequence | protease stability score
1 | SEEEEWIRRALEILIEIIRTGDEDSSKRYVDPHVRLHIGDKEFHGREDFTRMVHELFNRVDHIEIRIHDMRIINGQAHVDTELILRQGDKEIVLRTEIVLLKFDGKWIMESVHIR | 1.29
2 | SEEEEWLRRYRHLFKHLWTTGDWRTLEELLDPRTRIDIDVGDKRYHIHGREDAVEFFHRERRELGIDHIEDKRTRVIDGQVEIHGKIHVDGRDETRTIHVIVVNGRMKYLYFHVE | 0.5
3 | SEEEEWMEEFRERWERNFMTGDEDAMRELADPNVRIDIGEWDVHGREHLAELLKRHLDTLGINHVEFDHSTVIDGVIHIHMTINVNGKRIYSEVRLLVVNGKLKHSHYDIK | 1.01
4 | SEEEEYALKVLEDILKAFLTGDWKITEHLLDPDARLEINGRNFVGRELIRKYLEEYLRRIDVVRIKIRHVEVQGDKNHLEGELIEIQGDKHKSMDMKIHLVIINGRVRREHVRVE | 2.15
5 | SEEEEYAREFLERHLHSLKTGDWREEHKQADPEVRLHIGDKEFHGREIFVKIQREILEQADHLRIHIRRVHVQGDFLHIDGELRIRINGREHYIDRKVIVWKFNGRWHLHEVSIE | 1.39
6 | SEEEEYARHFMTLVMSNLHTGNFEESRQNADPRTRVVIGDKRLHGWDEFAREYHEELRDRGVEIHFRVHHIEEFDGRLLTDFSIEIRYGDKVDHIRIRLYVTKINGRWFIKELEFR | 1.1
7 | SEEEEYARKAAEEFIKHVETGNEDKIILLFDPNALYVYNGVELIGWHVFKEHTHRFKNIRRHITHVEIRVINGVVHVHIDGRFHVNGVDVEQEINIVFRKINGRWKIESNEERFR | 1.57
8 | SEEEEYFRFVAEEFLKAWSTGNEEILERLFDPRVRLSFNGKQFHGRERVHDKLMQLLEHLGINHTRIDDREFRIIGDKAEIRIDLILHVGDKTLRVEVILIITKVNGVWMMKEVELRIH | 1.51
9 | SEEEEYLRRVAELILRLLITGDEDEHHNLADPNTLVLIDINGVHIRDHGWWALRRWWEELERRVPGMRVRPRNMTVQGEKVILHMETVIGDKRLRLDFYHLVIDGKITSVEIKVDES | 2.4
10 | SEEEEYVTKYTRHWLHSHVTGDEDYLRRYADPHVRVDINGREVHGRDEAAHFIERVLRHIREEHLDDRDFTVINGKSILHGELKISINGQEWRVNFDIIIVVVNGRFKREEVRVK | 0.858
11 | SEEEFFTEMALRIYIELFETGDEHLIERLADPNVIIDFNGREFIGREYFSRIFHFLRRHWRMRDVTLKDWRVFDGRLHMEVQLYGKVNGQETQRDTHLVSTKINGRWRIHSDKWD | 1.25
12 | SEEEHDAHIALKIWLDNLFTGDEEKLKEMMDPNVRMDFDGRHIHGREAIEMLLRRVDHWHHIEVRLEHLRIIGDKVILHIRQVEHIQIGDKHDRVHSNITLVFLKFDGKWFIREIRIK | 2.78
13 | SEEEHDTRNALKIIIRTLITGNEDERRKLLDPHVRLEFEGWHEHGRDAAHLLSFWYRERVDVLRDSKVEHVELQGDKIRMDIILISEYNGVHTSTHVHIVVEKFNGRWHMRSIFFL | 1.16
14 | SEEEHDTRRAIEIFLRIIMTGNEEDFERLFDPDARSEWNGVELHGREIITHIWLEIFDRFPNIKIEVRVERYRIQGEKVDIDMELIFRVGDKEDSRKTRMHVLKVDGKWTVKLFKIK | 2.33
15 | SEEEHDVEFVRRLQEEVWHTGDEDKLEELLDPDARAHVNGVTYHGREFVHFFYKRVDHVHHYQIEETRVVGDKLHLISRTDLVINGQRVKTELRWNITKVNGKWRVTEVRID | 1.06
16 | SEEEHDVERSIKHFLHILETGDWKELYEQMDPNVRIEIDGKFIIGREASVHHFNRYDHHRSRIEIKHVDVYGDKLNVHGHIHEHFSVNGKDITRSMRVILHARKVDGQWIHTEVRYK | 1.32
17 | SEEEHDWRRALKIFLESLTTGDPKSITELVDPNARSDINGVDLHGREEWSKEMNRIKNLTIHDFEIEHISIYDGKAEINGHLDFEFDGVRTKIEVHLIFEKVDGKWVIQSRIVK | 0.895
18 | SEEEHEADLLHKELWESWHTGDEKHLTNLMDPNVRLQIGDKHYVGRENALNVLHFIRRKLGIKYFELESVTHHEINGRIHTIFDGSILINGKTVKDKIEVDTEKYNGQWRITQINIDFR | 2.24
19 | SEEEHEAIKHAYEFLEWLRTGDEEKIEKLLDPNVRLIIGDKTAHGREEFIRVMKEELERMGVNVFRLRDTRVNIFDGRVEIRFDTDLHFNGKTVHVELILRVHKVDGRWVLESVQVNIH | 1.48
20 | SEEEHEEREAIEQLTRSLTTGDEHMMTNNMDPNVRIHIDGRDLVGREEAIKWLQEIHKKYKNIKYEIKRIDSFNGRLIVDGRVEYNGRRVDMHLIALKFDGRWLIEEVRVN | 2.26
21 | SEEEHEFKKFLEHFLHRLTTGDEDELRRLADPHVRVLINGRHIVGMDEVTKVLRHLREIIEELRIDDIDLQGDKIRMDTRTRIRFIIGDWETKIETRTRIFIWKFNGRWIMEHIERD | 0.811
22 | SEEEHEIRLAFKQVIETLITGDEHIMTQLLDPNVKIRQGDKILHGREEAHKWADEWLRRVDHFEDMKIHRHSVFNGRLELDSEQVVIQGDKTISIRSEIILTKINGRWQIEELRFD | 1.43
23 | SEEEHEIRRAVEHWYRSLHTGDEEESIDLVDPHTITIVNGREVHGRHLMYEIMRKFKNAKIEFEITHHEVVNGRADVNMRLTVHIGDKTYETIIHLHTEKVNGRWTVRHWEVK | 1.46
24 | SEEEHELDHIAKEFLRVYLTGDEDELRKLMDPNARVDINGREMIGMELILKDLRDRLEHLGIKHSHITIREVQNFDGQIHIRGHIRIEIGNKRLEFDSRIIMHVIDGRLRSFHVIFI | 1.92
25 | SEEEHELKHWMKLFKHMIETGDWDSLVHYLDPHTRMHVGEFHHHGRHLMLKAFHDFLREMGAKHSDHKDSEITIQGDKVELTLDTRSQVGDKEFNVRIININRKVNGRWIIHSIIIEVE | 1.09

Row | Sequence | protease stability score
26 | SEEEHEMERHEREFRDVAETGDERDWTNLADPNVRFEDEDEVLVGREDWHEYVRRVDHFHVRRLDYEHFSVIDGRIDIEGNMDIELNFDGQSHRMRVHVRIITTKINGVWLFESVHIQ | 1.75
27 | SEEEHEQENWARLMLHLFLTGDEEILLELFDPNVRSDVDGRKFHGRDEVSHAIRWILEHFGFKHSHVRHFEIYNGRVHSEVEINVDGVRLTLHIHLNIYNGRLKDSEFRLK | 0.967
28 | SEEEHFAKELHKLFLEWWKTGDEEHLLEFADPDARSEIGDKRHHGREEVSRELLEFRRRIPGVQIRHQHVSVHLIDGKLTTHLHFRVNFNGVEFHETIIYYNDKYNGKWHLKSIIVTIE | 0.954
29 | SEEEHHAEEFVKIFTMTNLTGDFTTLEKLADPNVQIDVGDKHFHGREEMLKLIQDERREFGFKHLHLEIDRIETQGNFLDVHITVIIRVNGVEMRHKRRLTILKIDGQWHIKSVEVD | 1.27
30 | SEEEHHAKKIAEDFLRWFITGDEDVLSHYADPDVRSRIGDKHHHGREELRRVMERLVRELRIKEIRIERYEVQGEKAILDSRVRGDVNGVEVEVRQIVIVVVIDGRLKSMELRLG | 0.516
31 | SEEEHHARYMTQLFLHALETGDWHELRRMADPNMRLRVRVGDKHWHYHGWEHLHELLESFLKRVDHVEFIERSIHVQGEKSRFRGDVREHVGDKEHTHHIILILDIVNGKIHRIIIINE | 1.37
32 | SEEEHHDRLMTDFFIEIMRTGDEKEFIDLFDPHDRTHIDGVDAHGREIAVELLHLFLRKLGFDHIRVTDVHVYNGKVELHMRSDQGDKHVEVQIHSVVYNGKLQHLHVKIRTL | 1.63
33 | SEEEHHDRMVSHLWIKLWSTGDEDRIRELLDPNAKFELEQGDKEVHDHGRESIAKWLEIMFRHLGVKHFRLEHVHVFNGRIEVIMRLDVGDKHITIILRTQVIDGRIKSFVIETRHK | 1.17
34 | SEEEHHFERWMRVFLHSMRTGDPSSFEELLDPNTRFIYGDKERHGREEANKWAHHLRITHMEDTDFDVYDGVLTIDIRLDFVVNGRRHEVKTHLLVVKIDGRWLINEVEIK | 0.514
35 | SEEEHHVVRMMELLIDLLMTGDEEVFDSLVDPDVKSNINGVHSVGMESINEIFRRYVDFFKNVKVDVHLRDREAQGDKHITYGVRIERFDGKQFTIDTRLELKVVNGRIKDVKVDIK | 1.46
36 | SEEEHISERAMELLSESIRTGNEHLISKLADPHTRMLYGDKELHGRSRWSEWASRVKNMRFETHEVRVVGDKIRSDVRSNFDGRLHIEHLYILKIDGRWVLDKIEIE | 0.246
37 | SEEEHITKLALDMWFTSLLTGDEHTFRHLLDPNVRVHIDGREYHGREHWRDLLTYLLTHLGVDHMEFRTRDQDVVGDKITLVTEIIIHVGDKNLSFESELIVAKVDGRWRIRSEDYR | 0.645
38 | SEEEHIVKEAVRLWYEAVHTGDPHTLNEFLDPHMRIEIGDKEKHGRHELKKLTEHIRIERLEFTLTHMKIVGNKAHVYGHLRFEGDWDGQRIHTEVETRLHIIKYDGKWMTEEVHIR | 1.97
39 | SEEEHKIRKLLEDLANFIRTGDEHRINELLDPNVMIDINGQKFHGRESLETVYHEWLKRVDHIEDLRIDDISKQGEFLIMHANMTLRQGDKHHRENVHIIILKVDGRWIMTSILFR | 2.2
40 | SEEEHLAREMTELHKQAELTGDEHFLNELMDPHVRIDINGVPAIGWEESNEVLKRIWEEMRIDDIRPTHVELQGNKIHVHVQSHITIDGQRRIFHERIVIVVFNGRMREVKFDIH | 1.19
41 | SEEEHLFEFVIRVIYHAMKTGDWEFWERYLDPHVRYQQGDKEHHGRKMTLHYLERLSDELGVTRIEVDLKHIHVYNGRVEIIGELNINGRRTEVRITSEKINGRWTVKELHIV | 1.55
42 | SEEEHLLKFFLDVLMDLHSTGDERKLYELFDPNVRIEYDGKETHGRERAREQFQEMRVRVEHVHIKDLTLQGDKVIIDTKVDMTIHIDGKTIREDRKLQVDFDKVDGRWTVHELIFR | 1.13
43 | SEEEHLLREILERIIHIYSTGDEQILKHLMDPHVKITVEVNGRRIIFHGMEQYIQWYRDLGFDHSKVKLRDHRIIGDKAHAVTELEIHFDGKRREEETREVIVVIDGRLTTWHTSVN | 0.898
44 | SEEEHLMRELLEVFLRNMLTGDWDKTAKLADPDTRFRAHVGDFKVERHGMEQFIKWLKDEREQWRIRRIHIDRIELVDGVIRVEGTIDVEYDGVREVERSELILVIIDGRIHEVEVHIR | 1.44
45 | SEEEHLSKLTKKHMLHLWETGNETILEELADPNARHRWLVNGKEVTAHGREEVTRLFRDILDELGVDHLKLHSETVIGEKIHFDMIMIIGEFESRVRLNLHIVNGRIKEIDLQEQ | 0.445
46 | SEEEHMIELIVKWYSRALETGDEEELAEMLDPNTRLDVDGKDIHGRENILKRRKKHLDHLGHERIEIHFDVSHIDYIGDKVIIHVKLILHYNGREIHLDVKMLIVKINGRWRFRHFESK | 1.93
47 | SEEEHMLEAFFEDVLQLVMTGDEHRLKHLFDPNVRVETEHEHFHGRELFLQRMLEIRIHDFHIHDFEVQGDKAHVDGRVEGTIDGRTNHWTFTLILEKIDGRWLANKVTWH | 1.55
48 | SEEEHRMREILDLLTESFHTGDERIHLEYADPHARFDIGDKHIHGRELFTKRWKEWLERFKNITLQLRIDDVSIIDGVFVVEGTLTIRINGVEIERDTHIFLYIVDGRVSTMKRTIH | -0.116
49 | SEEEHRSELAVELVHYTLMTGDFHLIERLVDPNVKLRILIGDKEYDLHGWKEVYRFMVTFGFDHMELKTFDLQGDKLNIDLRLHVDGRNVETSIVALKVNGKWINESEHYRIK | 0.464
50 | SEEEHRVKELARLFVEVLLTGDWKTLLELMDPNTRLRINGKDFIGMEDAVKAWRDYLDEIRHDDIKLTRIENNEDHSHLDGRQHGIYNGQRTDTILNVDIHMVNGKIKEVHIEIE | 1.01
